T1: CXCR2 (Homo sapiens, UniProt P25025)
T1 sequence (P25025 1-360): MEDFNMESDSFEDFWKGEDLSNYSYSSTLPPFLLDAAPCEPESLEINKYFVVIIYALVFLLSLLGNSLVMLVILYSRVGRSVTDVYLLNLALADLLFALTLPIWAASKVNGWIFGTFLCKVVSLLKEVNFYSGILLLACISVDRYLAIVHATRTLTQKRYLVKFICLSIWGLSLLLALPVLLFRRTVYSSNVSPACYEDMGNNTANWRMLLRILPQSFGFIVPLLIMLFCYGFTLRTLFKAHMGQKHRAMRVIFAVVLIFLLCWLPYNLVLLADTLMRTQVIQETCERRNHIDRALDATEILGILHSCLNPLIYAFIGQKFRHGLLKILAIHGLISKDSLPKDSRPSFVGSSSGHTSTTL

T2: DARC (Homo sapiens, UniProt Q16570)
T2 construct: expressed in transfected cells; host or cells: HEK293T
T2 sequence (Q16570 1-336): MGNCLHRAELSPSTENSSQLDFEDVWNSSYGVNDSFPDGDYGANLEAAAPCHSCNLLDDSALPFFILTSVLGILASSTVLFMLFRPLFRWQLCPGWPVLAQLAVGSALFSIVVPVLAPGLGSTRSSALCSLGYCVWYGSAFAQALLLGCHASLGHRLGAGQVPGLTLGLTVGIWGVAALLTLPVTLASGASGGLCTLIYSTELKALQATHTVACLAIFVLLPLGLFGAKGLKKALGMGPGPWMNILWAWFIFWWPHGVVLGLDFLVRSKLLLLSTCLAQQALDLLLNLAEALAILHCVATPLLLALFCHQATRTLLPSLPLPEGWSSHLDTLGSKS

T3: CXCR1 (Homo sapiens, UniProt P25024)
T3 sequence (P25024 1-350): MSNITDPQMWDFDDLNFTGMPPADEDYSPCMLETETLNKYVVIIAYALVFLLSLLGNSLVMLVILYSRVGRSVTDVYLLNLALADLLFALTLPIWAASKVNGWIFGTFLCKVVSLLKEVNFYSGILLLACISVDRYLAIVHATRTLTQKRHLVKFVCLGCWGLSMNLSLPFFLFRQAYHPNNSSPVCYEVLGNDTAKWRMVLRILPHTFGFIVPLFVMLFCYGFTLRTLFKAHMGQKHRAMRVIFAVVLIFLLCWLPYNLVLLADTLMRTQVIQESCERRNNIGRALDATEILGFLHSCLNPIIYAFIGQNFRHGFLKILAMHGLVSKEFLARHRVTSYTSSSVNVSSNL

B1: LukED: S. aureus bicomponent pore-forming leukotoxin leukocidin E/D, LukE plus LukD subunits (protein)
chain 1: NTNIENIGDGAEVIKRTEDVSSKKWGVTQNVQFDFVKDKKYNKDALIVKMQGFINSRTSFSDVKGSGYELTKRMIWPFQYNIGLTTKDPNVSLINYLPKNKIETTDVGQTLGYNIGGNFQSAPSIGGNGSFNYSKTISYTQKSYVSEVDKQNSKSVKWGVKANEFVTPDGKKSAHDRYLFVQSPNGPTGSAREYFAPDNQLPPLVQSGFNPSFITTLSHEKGSSDTSEFEISYGRNLDITYATLFPRTGIYAERKHNAFVNRNFVVRYEVNWKTHEIKVKGHN
chain 2: AQHITPVSEKKVDDKITLYKTTATSDNDKLNISQILTFNFIKDKSYDKDTLVLKAAGNINSGYKKPNPKDYNYSQFYWGGKYNVSVSSESNDAVNVVDYAPKNQNEEFQVQQTLGYSYGGDINISNGLSGGLNGSKSFSETINYKQESYRTTIDRKTNHKSIGWGVEAHKIMNNGWGPYGRDSYDPTYGNELFLGGRQSSSNAGQNFLPTHQMPLLARGNFNPEFISVLSHKQNDTKKSKIKVTYQREMDRYTNQWNRLHWVGNNYKNQNTVTFTSTYEVDWQNHTVKLIGTDSKETNPGV
modifications: left off: small tags and cut ends
notes: S. aureus bicomponent pore-forming leukotoxin leukocidin E/D, LukE plus LukD subunits

Legend:
[1] = system: human PMNs; experiment: Viability of PMNs challenged with a lethal dose of LukED in the presence of chemokines; type: cell-based; details: LukED 75 nM
[2] = system: PMNs; experiment: Ex vivo infection of PMNs with toxin-producing S. aureus strains; type: cell-based, human; details: multiplicity of infection of 10
Method: Ex vivo infection experiments. S. aureus strains containing either the pOS1-plukA-lukAs.s.-6×His vector construct containing either no toxin (empty), lukED or lukE^DR4D were subcultured for 4.5 hours, followed by normalization to 1×10^9 CFU per ml in RPMI+10% FBS. Cells were diluted 1:10 and 20 μl were added to 80 μl of media containing 2×10^5 PMNs seeded into 96-well plates. Infections were carried out for 3.5 hours at 37° C. with shaking at 180 RPM. 2 μg ml-1 of lysostaphin was added for 20 minutes at 37° C. with shaking at 180 RPM to kill all bacteria. Cells were centrifuged for 5 minutes at 1,500 RPM and 4° C., followed by fixing in FACS fixing buffer (PBS+2% FBS+2% paraformaldehyde+0.05% sodium azide). To analyze toxin mediated killing by flow cytometry, cellular depletion from gated live cells was evaluated. Percent cell death was calculated by comparing cells remaining in the live gate to that of Newman ΔΔΔΔ strain containing the empty pOS1-plukA modified empty vector (no toxin), which was set to 0% dead.

[3] = system: PBMC subsets (NK cells, CD8^+ T cells, monocytes); experiment: Susceptibility of PBMC subsets to toxins, flow cytometry; type: cell-based, human
Method: (§1) Isolation of PBMCs. Blood was obtained as buffy coats with the consent of de-identified donors from the New York Blood Center. PBMCs were isolated from blood using a Ficoll-Paque PLUS gradient (GE Amersham) and gated on CCR5^+ cells, followed by anti-CD3 and CD14 cell surface staining for lymphocyte and monocyte populations. Cells were then incubated with LukED (75 nM) in the presence or absence of maraviroc (MVC, 100 ng ml-1).
(§2) FACS analysis. Cell staining was performed as described previously (Alonzo et al., “CCR5 is a Receptor for Staphylococcus aureus Leukotoxin ED,” Nature 493:51-55 (2013), which is hereby incorporated by reference in its entirety). FACS data were obtained using FACSDiva software on a LSRII flow cytometer (BD Biosciences). Data was analyzed using FlowJo software (Treestar).
(§3) Leukotoxin treatments. HEK293T cells, THP-1, primary human PBMCs and primary murine peritoneal exudate cells were treated with LukE, LukD or LukED as previously described (Alonzo et al., “CCR5 is a Receptor for Staphylococcus aureus Leukotoxin ED,” Nature 493:51-55 (2013), which is hereby incorporated by reference in its entirety). In all experiments 1-2×10^5 cells were seeded into 96-well plates. […]

[4] = biological target: T1, CXCR2; experiment: Toxin susceptibility of HEK293T cells transfected with chemokine receptor CXCR2; type: cell-based; parameters: expressed in transfected cells; host or cells: HEK293T; details: viability (600 nM) or ethidium bromide permeability (1 hr; HlgAB/HlgCB 20 μg/ml)
Method: (§4) Cell culture conditions and viral transductions. Primary human cells and THP-1 were cultured at 37° C. with 5% CO2 in RPMI supplemented with 10% fetal bovine serum (FBS; Atlanta Biologicals) and penicillin (100 U ml-1) and streptomycin (0.1 mg ml-1) (Mediatech) unless stated otherwise. Overexpression and lentiviral-based knockdown of Cxcr2 or non-target shRNA were performed as previously described (Wan et al., “Cytokine Signals Through PI-3 Kinase Pathway Modulate Th17 Cytokine Production by CCR6+ Human Memory T Cells,” J. Exp. Med. 208:1875-1887 (2011), which is hereby incorporated by reference in its entirety) and maintained in 1.3 μg ml-1 puromycin. HEK293T cells were cultured at 37° C. with 5% CO2 in DMEM (Cellgro) and supplemented as described above.
as §3

[5] = system: mice; experiment: Survival of mice upon bloodstream (intravenous) administration of purified toxin; type: in vivo, mouse; details: intravenous injection, 10 μg of each subunit, n=5
[6] = system: THP-1 cells; experiment: Viability of THP-1 cells transduced with non-target or Cxcr2 shRNA treated with LukED; type: cell-based, human; details: Cxcr2 shRNA versus non-target shRNA
Method: as §4, §3

[7] = system: murine peritoneal exudate cells (PMNs, CCR5^+ macrophages); experiment: Killing of murine peritoneal exudate cells (PEC) by toxins in vitro; type: cell-based, mouse; details: 300 nM
Method: Murine in vitro and in vivo experiments. To evaluate LukED-mediated killing of murine cells in vitro, C57BL/6 WT mice (Taconic) were injected intraperitoneally with 1×10^7 CFU of heatkilled S. aureus Newman ΔlukED. Twenty-four hours post injection, another dose of 1×10^7 CFU of heat-killed S. aureus Newman ΔlukED was injected as before. After an additional twenty-four hours, mice were sacrificed and immune cells were collected by peritoneal cavity lavage using 8 ml of PBS. Red blood cells were lysed using 2 ml ACK lysis buffer (Gibco) followed by resuspension of remaining peritoneal exudate cells in RPMI+10% FBS. Cells were incubated with PBS, LukED or LukE^DR4D (300 nM) and incubated for 30 minutes on ice. After incubation, the cells were washed three times with PBS then stained with the fixable viability dye eFluor-450, followed by cell surface staining with CD11b, B220, F480, CD3, Ly6G, CCR5 and CXCR2 antibodies. Cell viability of specific immune cell populations was subsequently analyzed on an LSRII flow cytometer (BD). FACS plots are representative of results obtained from cells isolated from at least 3 independent animals.

[8] = biological target: T4, CCR5 (Homo sapiens, UniProt P51681); experiment: Toxin susceptibility of HEK293T cells transfected with CCR5; type: cell-based; details: ethidium bromide permeability (1 hr; HlgAB 20 μg/ml)
T4 construct: expressed in transfected cells; host or cells: HEK293T
T4 sequence (P51681 whole entry): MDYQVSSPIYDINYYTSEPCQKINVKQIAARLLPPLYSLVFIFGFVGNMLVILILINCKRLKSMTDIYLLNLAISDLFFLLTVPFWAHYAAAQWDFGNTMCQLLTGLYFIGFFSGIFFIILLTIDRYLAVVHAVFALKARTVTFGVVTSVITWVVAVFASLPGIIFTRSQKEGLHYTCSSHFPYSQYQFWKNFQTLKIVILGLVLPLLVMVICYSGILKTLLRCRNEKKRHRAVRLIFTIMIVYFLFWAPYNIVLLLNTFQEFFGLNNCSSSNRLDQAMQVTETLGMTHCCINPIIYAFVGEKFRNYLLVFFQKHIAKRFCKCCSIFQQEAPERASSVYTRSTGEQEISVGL

[9] = system: monocytes within PBMCs; experiment: LukED treatment of human PBMCs, CD14/CD3 flow cytometry; type: cell-based; details: PBMCs from a Δ32Ccr5 donor; LukED 75 nM
Method: as §1
CCR5 inhibitor and ligands. Maraviroc was obtained through the AIDS Research and Reference Reagent Program, Division of AIDS (NIAID, NIH) and used at a final concentration of 100 ng ml-1.
as §2, §3

[10] = system: human RBCs; experiment: LukED-mediated lysis of human red blood cells; type: cell-based; details: RBCs from nine donors, DARC+ and DARC−
[11] = biological target: T2, DARC; experiment: Toxin susceptibility of HEK293T cells transfected with DARC; type: cell-based; details: ethidium bromide permeability (1 hr; HlgAB/HlgCB 20 μg/ml)
[12] = biological target: T3, CXCR1; experiment: Toxin susceptibility of HEK293T cells transfected with chemokine receptor CXCR1; type: cell-based; parameters: expressed in transfected cells; host or cells: HEK293T; details: viability (600 nM) or ethidium bromide permeability (1 hr; HlgAB/HlgCB 20 μg/ml)
[13] = system: human PMNs; experiment: Viability of primary human neutrophils (PMNs) treated with leukotoxins; type: cell-based

Row | Molecule | prevention of LukED-mediated death of PMNs [1] | inhibition of cytotoxic activity of the LukED-producing S. aureus strain on PMNs [2] | cytotoxicity to NK cells and CD8+ T cells in PBMCs [3] | susceptibility of CXCR2-transfected HEK293T cells to toxin [4] | lethality in mice [5] | LukED killing of THP-1 cells after CXCR2 knockdown [6] | susceptibility of murine CCR5+ macrophages [7] | murine PMNs killed ([7]; 30 minutes on ice) [%] | susceptibility of CCR5-transfected HEK293T cells to toxin [8] | LukED targeting of monocytes [9] | hemolysis of human RBCs [10] | susceptibility of DARC-transfected HEK293T cells to toxin [11] | susceptibility of CXCR1-transfected HEK293T cells to toxin [12] | cytotoxic activity against hPMNs ([13]; LukE or alanine mutant mixed equimolar with LukD, n=8 donors) | susceptibility of PMNs to toxin (viability) ([13]; PMNs from Ccr5+/+ and Δ32Ccr5 donors, 75 nM)
1 | CXCL8: chemokine ligand of CXCR1/CXCR2, obtained from BioLegend | prevented LukED-mediated death of PMNs | inhibited by CXCL8 |  |  |  |  |  |  |  |  |  |  |  |  | 
2 | B1 |  |  | cytotoxic to the majority of NK cells and a subset of CD8^+ T cells | sufficient to render HEK293T cells susceptible | rapid death | rendered cells resistant to LukED killing | equally susceptible to both LukED and LukE^DR4D | ~79 | targets CCR5, CXCR1, CXCR2, and DARC to kill host cells | targeted in a LukED-mediated, CCR5-independent manner | some donors were susceptible to LukED hemolysis while others were not | sufficient to render HEK293T cells susceptible | sufficient to render HEK293T cells susceptible | targeted and killed the hPMNs | equally susceptible to LukED
